One assay concerns the target HLA-B*14:02. The experiment in a line: IEDB peptide-MHC binding, purified MHC/direct/fluorescence; filed as Kd, often an IC50 or EC50 that approximates it; ≥ and ≤ were set here for values at or beyond the usual limits of such assays. The following applies: source organism: Homo sapiens.
In the next assay the target is HLA-C*15:02. The assay is described as above. The following applies: source organism: Burkholderia mallei NCTC 10229.
In another assay the target is HLA-A*02:12. The experiment in a line: IEDB peptide-MHC binding, purified MHC/competitive/fluorescence; filed as Kd, often an IC50 or EC50 that approximates it; ≥ and ≤ were set here for values at or beyond the usual limits of such assays.
In another assay the target is HLA-A*02:19. The description is as above. The following applies: source organism: Burkholderia mallei NCTC 10229.
A further assay deals with HLA-A*26:01. The assay is described as above. The note with it: source organism: Burkholderia mallei NCTC 10229.
Assay [1] has as its target HLA-A*29:02. The description is as above. The following applies: source organism: Burkholderia mallei NCTC 10229.
The target of a further assay is HLA-A*80:01. The description is as above. The following applies: source organism: Burkholderia mallei NCTC 10229.
The target of a further assay is HLA-B*39:01. Described as above. The following applies: source organism: Burkholderia mallei NCTC 10229.
A further assay concerns the target HLA-C*05:01. The assay is described as follows: IEDB peptide-MHC binding, purified MHC/direct/fluorescence; filed as Kd, often an IC50 or EC50 that approximates it; ≥ and ≤ were set here for values at or beyond the usual limits of such assays. The note with it: source organism: Entamoeba histolytica HM-1:IMSS.
The next assay has as its target HLA-A*32:15. The experiment in a line: IEDB peptide-MHC binding, purified MHC/competitive/fluorescence; filed as Kd, often an IC50 or EC50 that approximates it; ≥ and ≤ were set here for values at or beyond the usual limits of such assays. The following applies: source organism: Entamoeba histolytica HM-1:IMSS.
For the next assay, the target named is HLA-A*68:23. The description is as above. The following applies: source organism: Entamoeba histolytica HM-1:IMSS.
In another assay the target is HLA-B*15:42. The description is as above. The note with it: source organism: Entamoeba histolytica HM-1:IMSS.
The next assay has as its target HLA-B*40:13. Described as above. The following applies: source organism: Entamoeba histolytica HM-1:IMSS.
The next assay concerns the target HLA-B*45:06. The description is as above. The following applies: source organism: Entamoeba histolytica HM-1:IMSS.
A further assay addresses HLA-B*51:01. Described as above. The following applies: source organism: Entamoeba histolytica HM-1:IMSS.
The target in a further assay is HLA-B*83:01. The assay is described as above. The following applies: source organism: Entamoeba histolytica HM-1:IMSS.
For the next assay, the target named is HLA-B*15:02. The assay is described as above. The note with it: source organism: Homo sapiens.
A further assay addresses HLA-B*46:01. Described as above.
Assay [2] deals with HLA-A*02:01. The experiment in a line: IEDB peptide-MHC binding, purified MHC/competitive/radioactivity; filed as Kd, often an IC50 or EC50 that approximates it; ≥ and ≤ were set here for values at or beyond the usual limits of such assays. The note with it: source organism: Homo sapiens.
In a further assay the target is HLA-A*02:07. Described as above. The following applies: source organism: Homo sapiens.
Assay [3] deals with HLA-A*29:02. Described as above. The following applies: source organism: Homo sapiens.
In the next assay the target is HLA-B*57:01. The description is as above. The note with it: source organism: Homo sapiens.
Assay [4] deals with HLA-B*58:01. The description is as above. The note with it: source organism: Homo sapiens.
For another assay, the target named is HLA-A*01:01. The assay is described as follows: IEDB peptide-MHC binding, purified MHC/competitive/fluorescence; filed as Kd, often an IC50 or EC50 that approximates it; ≥ and ≤ were set here for values at or beyond the usual limits of such assays. The note with it: source organism: Escherichia coli str. K-12 substr. DH10B.
The target of assay [5] is HLA-A*02:01. The assay is described as above. The following applies: source organism: Escherichia coli str. K-12 substr. DH10B.
A further assay deals with HLA-A*02:03. Described as above. The note with it: source organism: Escherichia coli str. K-12 substr. DH10B.
The target in the next assay is HLA-A*03:01. The assay is described as above. The following applies: source organism: Escherichia coli str. K-12 substr. DH10B.
In a further assay the target is HLA-A*11:01. Described as above. The note with it: source organism: Escherichia coli str. K-12 substr. DH10B.
The target of another assay is HLA-A*26:02. The assay is described as above. The following applies: source organism: Escherichia coli str. K-12 substr. DH10B.
The next assay has as its target HLA-A*30:01. The description is as above. The note with it: source organism: Escherichia coli str. K-12 substr. DH10B.
The next assay concerns the target HLA-A*31:01. The description is as above. The following applies: source organism: Escherichia coli str. K-12 substr. DH10B.
For a further assay, the target named is HLA-B*07:02. The description is as above. The following applies: source organism: Escherichia coli str. K-12 substr. DH10B.
Another assay has as its target HLA-B*08:02. The assay is described as above. The following applies: source organism: Escherichia coli str. K-12 substr. DH10B.
The next assay deals with HLA-B*08:03. The assay is described as above. The following applies: source organism: Escherichia coli str. K-12 substr. DH10B.
The next assay addresses HLA-B*15:01. The description is as above. The following applies: source organism: Escherichia coli str. K-12 substr. DH10B.
A further assay addresses HLA-B*18:01. The assay is described as above. The note with it: source organism: Escherichia coli str. K-12 substr. DH10B.
The next assay has as its target HLA-B*27:05. Described as above. The following applies: source organism: Escherichia coli str. K-12 substr. DH10B.
A further assay has as its target HLA-B*35:01. The assay is described as above. The following applies: source organism: Escherichia coli str. K-12 substr. DH10B.
In another assay the target is HLA-B*40:01. The assay is described as above. The note with it: source organism: Escherichia coli str. K-12 substr. DH10B.
A further assay concerns the target HLA-B*48:01. Described as above. The following applies: source organism: Escherichia coli str. K-12 substr. DH10B.
In assay [6] the target is HLA-B*58:01. The description is as above. The note with it: source organism: Escherichia coli str. K-12 substr. DH10B.
[7] abbreviates: source organism: Escherichia coli str. K-12 substr. DH10B.

As for DELNHASI, the dissociation constant Kd (usually the equilibrium constant for the complex coming apart) in the assay with HLA-B*14:02 came to 0.163 µM.

Regarding RTFGQPLFF, the dissociation constant Kd with HLA-C*15:02 is 0.005 µM; in the assay with HLA-A*02:12 (source organism: Burkholderia mallei NCTC 10229) it was no less than 20 µM; with HLA-A*02:19 it was no less than 20 µM; with HLA-A*26:01 it was no less than 20 µM; in the assay with HLA-A*29:02 [1], 0.0002 µM; with HLA-A*80:01, 0.413 µM. The equilibrium dissociation constant (Kd) with HLA-B*39:01 was no less than 20 µM.

For the sequence MPYHGYHII, the Kd in the assay with HLA-C*05:01 is no less than 20 µM; in the assay with HLA-A*32:15, 0.134 µM; with HLA-A*68:23, 0.095 µM; in the assay with HLA-B*15:42, no less than 5 µM; with HLA-B*40:13, 0.0441 µM; with HLA-B*45:06 it was no less than 5 µM. Besides, the Kd in the assay with HLA-B*51:01 worked out at 0.091 µM; in the assay with HLA-B*83:01 it was 0.0369 µM.

Consider SIRDGVRAY, for which the Kd is 0.0138 µM with HLA-B*15:02; 0.0515 µM in the assay with HLA-B*46:01 (source organism: Homo sapiens); no less than 78.1 µM with HLA-A*02:01 [2]; no less than 60 µM in the assay with HLA-A*02:07; 2.87 µM with HLA-A*29:02 [3]; no less than 45.6 µM with HLA-B*57:01. Further, in the assay with HLA-B*58:01 [4], the Kd is no less than 48.3 µM.

For QVIFKCVPK, the dissociation constant Kd is 1.04 µM in the assay with HLA-A*01:01; 0.367 µM in the assay with HLA-A*02:01 [5]; no less than 20 µM in the assay with HLA-A*02:03; 0.0686 µM with HLA-A*02:12 (setting [7]); 1.07 µM with HLA-A*03:01; 0.19 µM with HLA-A*11:01. For the same sequence, the Kd in the assay with HLA-A*26:02 was no less than 20 µM; with HLA-A*30:01 it was 0.0753 µM; with HLA-A*31:01, 4.77 µM; in the assay with HLA-B*07:02 it was no less than 20 µM; with HLA-B*08:02, no less than 20 µM; in the assay with HLA-B*08:03, no less than 20 µM. Besides, the Kd in the assay with HLA-B*15:01, with HLA-B*18:01, in the assay with HLA-B*27:05, with HLA-B*35:01, with HLA-B*40:01 and with HLA-B*46:01 (setting [7]) was no less than 20 µM each time. Moreover, the dissociation constant Kd with HLA-B*48:01 was no less than 20 µM; with HLA-B*58:01 [6], 2.26 µM.
